Assay results from the RNAGym collection of RNA variant scans (doi:10.1073/pnas.2313332121).
Fewer inactive variants are shown than the library holds.

B1: TPR 5TU (parent)
chain: GGAUCUUCUCGAUCUAACAAAAAAGACAAAUCUGCCACAAAGCUUGAGAGCAUCUUCGGAUGCAGAGGCGGCAGCCUUCGGUGGCGCGAUAGCGCCAACGUUCUCAACUAUGACACGCAAAACGCGUGCUCCGUUGAAUGGAGUUUAUCAUG

Variants of: B1
Experiment: polymerase ribozyme fitness, log enrichment relative to wild type (log ratio); higher = more active; in vitro selection for triplet polymerase activity
Summary of the method: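 Libraries of mutants in each subunit of a heterodimeric triplet polymerase ribozyme were generated by PCR and transcribed. In triplicate, each went through one in vitro selection round: annealing with biotinylated primer, partner subunit and triplets; frozen incubation at −7 °C; gel excision of extended constructs; streptavidin-bead capture; RT-PCR. Fitness, taken from Illumina sequencing of input and output libraries, is the logarithm of a genotype's enrichment over wild-type enrichment, averaged across replicates with inverse-variance weights. The logarithm is base 2, and genotypes needed ≥10 input reads and ≥1 read per output to be kept.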

Row | Variant | polymerase ribozyme fitness (log ratio)
1 | A20G C57A C69A C76U C96U | -1.94
2 | A20C U61G G112C | ≤ -4.2
3 | A20G G58A G81C A142C | -1.55
4 | A20C G92A U101G G124A C129U | -3.24
5 | A20C U104G A107C U145G | ≤ -4.2
6 | A20C C85U A89G A106G | -2.07
7 | A20C C27U G81A G86A C99G | -2.96
8 | A20C C54U C95U G140U | -3.23
9 | A20C C96U | -1.24
10 | A20C U127G G133C U134C A137C A138G G140A | ≤ -4.2
11 | A20C G42C G50U G84A C99A | ≤ -4.2
12 | A20C A30G G50U C95G A147G | ≤ -4.2
13 | A20C G48U G83U | -2.07
14 | A20G G25A A40U A47G G48C C85A A142G | ≤ -4.2
15 | A20G G34A C118G A121C | -3.83
16 | A20C A39C C79G A106G G124U | ≤ -4.2
17 | A20C A52U C93U C95A C96A U109A C125U | ≤ -4.2
18 | A20C G68C G141C | ≤ -4.2
19 | A20C U130G U144C | -4.14
20 | A20C U61G C75U U146A | -2.77
21 | A20G G34C C38A C76U U90C C114U | ≤ -4.2
22 | A20C U55A G67C G124A A137U | ≤ -4.2
23 | A20C U53A | -2.16
24 | A20C C76U C85U C95U C96U | -3.03

Row | Variant | polymerase ribozyme fitness (log ratio)
25 | A20G A107G C116G A122G G124A G128C | ≤ -4.2
26 | A20G C76A U90G A97G G136C | ≤ -4.2
27 | A20C A60C C85A | -2.66
28 | A20C C85U A115U | -1.06
29 | A20G A39G G50C C85A C93A C114G C125G | ≤ -4.2
30 | A20G C32G G86U C87A U109A | ≤ -4.2
31 | A20G C27A A47G G92A | ≤ -4.2
32 | A20C G34A A47G U104G U130G A150G | ≤ -4.2
33 | A20G C57U G62C G136U | -3.44
34 | A20C A47C A60G C85A G140U | ≤ -4.2
35 | A20G G50C C54G C105G A106U G133C U151A | ≤ -4.2
36 | A20C G25U C51A U77G G94C A115U G140C | ≤ -4.2
37 | A20G C27G G67C U78G A89U C93G G124A U151G | ≤ -4.2
38 | A20G A29U C51G C87G | ≤ -4.2
39 | A20G A21C G84U C95G G117U | -0.439
40 | A20C G50U G81C C103U A120U | -2
41 | A20C C63G G152A | -2.4
42 | A20C U55G C57U A120C | -0.73
43 | A20C A49G G81A C87G U104G A138C | ≤ -4.2
44 | A20C G65U U90G C93U C129A | ≤ -4.2
45 | A20G A22U G70U C85G A110U A121C | ≤ -4.2
46 | A20G C27U C35U A49U C76U C125U | ≤ -4.2
47 | A20C U56A C93A C116A | -1.28
48 | A20C C79A G94C | ≤ -4.2

Row | Variant | polymerase ribozyme fitness (log ratio)
49 | A20C G86A | -2.24
50 | A20C A39U A106G C131U A138U | ≤ -4.2
51 | A20C C54U G86C U101C U104A | ≤ -4.2
52 | A20G C95A A110G | -3.46
53 | A20C U56G G92U | -0.962
54 | A20C C63U A64C | ≤ -4.2
55 | A20G G59A U77A C95U G117U C118G A122U | ≤ -4.2
56 | A20G A29C G46U C54U C96U C116A U148A | ≤ -4.2
57 | A20G A37G A106G A138C | -3.84
58 | A20C C35U A97G | -0.284
59 | A20G A22U G141A | -1.8
60 | A20G C27G G65U G81A G88A A138C G143U | ≤ -4.2
61 | A20G A22U C93G | -4.09
62 | A20G A29U C51A A106C A113U | -4.2
63 | A20G G59C G70A | -4.05
64 | A20C A28U G48C G70A C87G A120G U135C | ≤ -4.2
65 | A20G A30U G83A A110C U148C | ≤ -4.2
66 | A20C G83C C118G U130G | ≤ -4.2
67 | A20C G83U A89U A97U | -2.13
68 | A20C C87A C116U | ≤ -4.2
69 | A20G A28G U90A C93A C95G A106U C123U | ≤ -4.2
70 | A20C A49C A52C C57U C76A G88A A106G G126C U145G | ≤ -4.2
71 | A20C U31G A40U | -0.279
72 | A20C C85A G126C U144A | -0.594

Row | Variant | polymerase ribozyme fitness (log ratio)
73 | A20C G46A C69G G94A | -2.22
74 | A20C A60G | -0.605
75 | A20C U53A C54A G59A G84A G124C | -2.39
76 | A20C U56A A107U | -2.71
77 | A20C G25C G34U C54A A91G A119U A122U G124U C125G | ≤ -4.2
78 | A20C C76G | ≤ -4.2
79 | A20C U33A C43U G88U G92A A115C G126A C132U A147C | ≤ -4.2
80 | A20C C32A A52G A91U G94A C99U A147U G152U | -3.97
81 | A20G C125A | -0.707
82 | A20G A21U A26U A29U A39C A91G G94U A97G C99A C131A A142G | ≤ -4.2
83 | A20G A21C U31C C103A U144G | -1.73
84 | A20G G59A | -0.551
85 | A20G C93A C132G U134G U148G | ≤ -4.2
86 | A20G A24G C51U C85U A120U C149G | ≤ -4.2
87 | A20G G42C G84A C149A | ≤ -4.2
88 | A20C C118U | -0.906
89 | A20G C57G A66C G94A C132U | ≤ -4.2
90 | A20C G48C G62A | -2.35
91 | A20G A23C U144G | ≤ -4.2
92 | A20G C96A | -1.84
93 | A20G C85U G94U C95G C125U | -3.59
94 | A20C G136A | -0.55
95 | A20G A91G U146A | -3.96
96 | A20G A24G A40C A49C C85A | ≤ -4.2

Row | Variant | polymerase ribozyme fitness (log ratio)
97 | A20C G81C C87U | -1.28
98 | A20G A22C C93A | -3.38
99 | A20C A40C U56A G92U | -0.349
100 | A20G C87U U148A | -3.21
101 | A20C U31G A49C A52C U53C | ≤ -4.2
102 | A20C A30C G100C U102G G143U U145G | ≤ -4.2
103 | A20G A21C C93A A97G | -3.83
104 | A20G C69U G84C G126C G136A | -1.72
105 | A20G A40C C72U G92A | -4.04
106 | A20C A73C G81A U90C G92C U104G | ≤ -4.2
107 | A20G A47C G48C G50C U56C C87A C95G U139A G141A | -4.1
108 | A20G G25A A49G C54U C76U G84A A122U U145G | ≤ -4.2
109 | A20G A24U C85A C116A | -0.238
110 | A20C A98U | -1.29
111 | A20G C51U | -0.842
112 | A20C C57G C105G C149A | ≤ -4.2
113 | A20C G94A G136U | -3.83
114 | A20G C35G C51A C85U C99U C129A U148A | ≤ -4.2
115 | A20C A24U U44A G88A C93U | ≤ -4.2
116 | A20G C54G C96U | -2
117 | A20C C43U U44A U55G C79U G141A | ≤ -4.2
118 | A20G A73G C85A | -2.05
119 | A20C A40G A52G C85A A98G | -4.01
120 | A20C G59A G81C G86C | -3.14

Row | Variant | polymerase ribozyme fitness (log ratio)
121 | A20C A73G C87G C114U G141A | ≤ -4.2
122 | A20G C63A G74A C93A | ≤ -4.2
123 | A20C A26C G128U U144G | ≤ -4.2
124 | A20G A40U U77C | ≤ -4.2
125 | A20G A52G G58U C87U | -0.805
126 | A20C U61A C63U C85U | -1.55
127 | A20C C36U C85G C103G | ≤ -4.2
128 | A20G C38U A47C A60G C93U A106G G128U | ≤ -4.2
129 | A20C U90G C99U G136C | ≤ -4.2
130 | A20G C36G G83A A91G A142G | ≤ -4.2
131 | A20C U144G | 0.273
132 | A20C A26C A30C U44G G50A A66C | ≤ -4.2
133 | A20C U101G C149U | -1.64
134 | A20G C35G A49C A73G C87G | ≤ -4.2
135 | A20G C54U A60U C85A | -3.42
136 | A20G A22U C87U | -2.33
137 | A20C A29C C87G A122G G140U | ≤ -4.2
138 | A20C U56A C75U | -0.244
139 | A20G A26U A39C G86C A150C | ≤ -4.2
140 | A20C C63U G88C C95U | ≤ -4.2
141 | A20C G62A G86U | -2.06
142 | A20G A91U | ≤ -4.2
143 | A20C A47U C51U C105U U144A | -2.59
144 | A20C C36A A49U U56G A91U U146C | ≤ -4.2

Row | Variant | polymerase ribozyme fitness (log ratio)
145 | A20C A47C | -0.462
146 | A20G A142C | -1.06
147 | A20G G50C C54G C76A C87G U90G C95U | ≤ -4.2
148 | A20C C93G | -3.89
149 | A20C C93U | -1.41
150 | A20G A30U C95U | -3.5
151 | A20G C43U G62U A91G | ≤ -4.2
152 | A20C C85A A97U | -3.02
153 | A20G A73U G83A | -2.36
154 | A20C C99G | -1.06
155 | A20C C36A | -4.06
156 | A20C C76A A119U | -1
157 | A20G A40C A41G A49C C76G G88A C96U | ≤ -4.2
158 | A20C A49U A60C | -3.14
159 | A20C U82A A150G | -0.662
160 | A20G A28U G42C A49C C93G C103A | ≤ -4.2
161 | A20G A52U C57A G62U C95A G133C A150U | -1.8
162 | A20G A24U U111A A142U G143U | ≤ -4.2
163 | A20C A49G | -0.512
164 | A20C U31G U53A U55G A115C | -2.82
165 | A20G A22U G59A C93G A98G A137G U139G | ≤ -4.2
166 | A20C C85U G86U C93A A119U A121G | -1.77
167 | A20C U53A U55A | -2.52
